Measured values published in PMC6949295 (2020).

B1: Exo70-Flag [rat] / HA-Exo84 [not stated] (parent complex)
chain 1: MIPPQEASARRREIEDKLKQEEETLSFIRDSLEKSDQLTKNMVSILSSFESRLMKLENSIIPVHKQTENLQRLQENVEKTLSCLDHVISYYHVASDTEKIIREGPTGRLEEYLGSMAKIQKAVEYFQDNSPDSPELNKVKLLFERGKESLESEFRSLMTRHSKVISPVLVLDLISADDELEVQEDVVLEHLPESVLQDVIRISRWLVEYGRNQDFMNVYYQIRSSQLDRSIKGLKEHFRKSSSSSGVPYSPAIPNKRKDTPTKKPIKRPGRDDMLDVETDAYIHCVSAFVRLAQSEYQLLMGIIPEHHQKKTFDSLIQDALDGLMLEGENIVSAARKAIIRHDFSTVLTVFPILRHLKQTKPEFDQVLQGTAASTKNKLPGLITSMETIGAKALEDFADNIKNDPDKEYNMPKDGTVHELTSNAILFLQQLLDFQETAGAMLASQETSSSATSYNSEFSKRLLSTYICKVLGNLQLNLLSKSKVYEDPALSAIFLHNNYNYILKSLEKSELIQLVAVTQKTAERSYREHIEQQIQTYQRSWLKVTDYIAEKNLPVFQPGVKLRDKERQMIKERFKGFNDGLEELCKIQKAWAIPDTEQRDKIRQAQKSIVKETYGAFLHRYSSVPFTKNPEKYIKYRVEQVGDMIDRLFDTSA
chain 2: MSDSGASRLRRQLESGGFEARLYVKQLSQQSDGDRDLQEHRQRVQALAEETAQNLKRNVYQNYRQFIETAREISYLESEMYQLSHLLTEQKSSLESIPLALLPAAAAGASTGEDTAGAGPRERGAAQAGFLPGPAGVPREGPGTGEEGKQRTLTTLLEKVEGCRDLLETPGQYLVYNGDLVEYEADHMAQLQRVHGFLMNDCLLVATWLPQRRGMYRYNALYPLDRLAVVNVKDNPPMKDMFKLLMFPESRIFQAENAKIKREWLEVLEETKRALSDKRRREQEEAAALRAPPPVTSKGSNPFEDEAEEELATPEAEEEKVDLSMEWIQELPEDLDVCIAQRDFEGAVDLLDKLNHYLEDKPSPPSVKELRAKVDERVRQLTEVLVFELSPDRSLRGGPKATRRAVSQLIRLGQCTKACELFLRNRAAAVHTAIRQLRIEGATLLYIHKLCHVFFTSLLETAREFETDFAGTDSGCYSAFVVWARSAMGMFVDAFSKQVFDSKESLSTAAECVKVAKEHCQQLGEIGLDLTFIIHALLVKDIQGALLSYKEIIIEATKHRNSEEMWRRMNLMTPEALGKLKEEMRSCGVSNFEQYTGDDCWVNLSYTVVAFTKQTMGFLEEALKLYFPELHMVLLESLVEVILVAVQHVDYSLRCEQDPEKKTFIRQNASFLYDTVLPVVERRFEEGVGKPAKQLQDLRNASRLLRVNPESTTSVV

Variants of: B1
Experiment: co-immunoprecipitation (IP: HA, blot: Flag); 293T cells; parent: 0.13

response	Variant
0 relative band intensity	chain 1 S47D, chain 1 S59D, chain 1 S89D
